Key:
[1] = system: A431 cells; assay: ADCC assay; type: cell-based, human; conditions: 1 μg/mL; representative experiment
Method: PBMCs were isolated from healthy volunteer donor blood. Heparinized whole blood was fractionated by density centrifugation on Ficoll-Hypaque (ICN Biomedical Inc., Ohio, USA). PBMC fractions was collected and washed three times with RPMI^+ 1640 supplemented with 100 U/ml penicillin and 100 μg/ml streptomycin, 2 mM L-glutamine, containing 5% heat-inactivated FCS.
CDC and ADCC assays were performed by a modification of a previously published method (Nelson, D. L. et al. (1991) In: J. E. Colignan, A. M. Kruisbeek, D. D. Margulies, E. M. Shevach, and W. Strober (eds.), Current Protocols in Immunology, pp. 7.27.1. New York: Greene Publishing Wiley Interscience). Briefly, 5×10^6 target U87MG.de2-7 and A431 cells were labeled with 50 μCi^51Cr (Geneworks, Adelaide, Australia) per 1×10^6 cells and incubated for 2 hr at 37° C. The cells were then washed three time with PBS (0.05M, pH 7.4) and a fourth wash with culture medium. […]
In the first assay, labelled target cells were plated with the effector cells in 96-well “U” bottom microplates (NUNC, Roskilde, Denmark) at effector/target (E:T) cell ratios of 50:1. […] In both assays, micotitre plates were incubated at 37° C. for 4 hours, then 50 μl supernatant was harvested from each well and released ^51Cr was determined by gamma counting (Cobra II automated Gamma Counter, Canberra Packard, Melbourne, Australia). […]

[2] = system: A431 xenografts; assay: s.c. xenograft therapy study; type: in vivo, nude mice; conditions: established; 6×1 mg IP
Method: Tumor cells (3×10^6) in […] of PBS were inoculated subcutaneously into both flanks of 4-6 week old female nude mice (Animal Research Centre, Western Australia, Australia). […] Treatment was continued for a total of 6 doses, 3 times per week for 2 weeks. In the established model, treatment was started when tumors had reached a mean volume of 65±6.42 mm^3 (U87MG.Δ2-7), 84±9.07 mm3 (U87MG), 73±7.5 mm^3 (U87MG.wtEGFR) or 201±19.09 mm^3 (A431 tumors). Tumor volume in mm^3 was determined using the formula […], where length was the longest axis and width the measurement at right angles to the length (Clark et al. (2000) Therapeutic efficacy of anti-Lewis (y) humanized 3S 193 radioimmunotherapy in a breast cancer model: enhanced activity when combined with Taxol chemotherapy. Clin. Cancer Res. 6, 3621-3628). Data was expressed as mean tumor volume±S.E. for each treatment group. Statistical analysis was performed at given time points using Student's t-test. Animals were euthanized when the xenografts reached an approximate volume of 1.5 cm^3 and the tumors excised for histological examination. This research project was approved by the Animal Ethics Committee of the Austin and Repatriation Medical Centre.
AG1478 (4-(3-Chloroanilino)-6,7-dimethoxyquinazoline) is a potent and selective inhibitor of the EGFR kinase versus HER2-neu and platelet-derived growth factor receptor kinase (Calbiochem Cat. No. 658552). […] The results are illustrated in FIG. 12. […] 400 μg AG1478 was administered at 0, 2, 4, 7, 9, and 11 days post xenograft.
With respect to “(iv),” different groups of mice received either 0.5 mg/injection of each mAb, or 0.25 mg/injection of each mAb.
Finally, the fourth group of mice, which had been inoculated with A431 cells, received injections as in groups I and III, at 8, 10, 12 and 14 days after inoculation. At the start, the average tumor size was 71 mm^3.
To establish xenografts, mice were injected subcutaneously into the right and left inguinal mammary line with 1×10^6 A431 adenocarcinoma cells or 1×10^6 U87MG.de2-7 glioma cells in 100 μl of PBS. Tumor volume (TV) was calculated by the formula […] where length was the longest axis and width the measurement at right angles to length. […] Therapy was administered on days 6, 8, 11, 13, 15 and 18 for A431, and days 4, 6, 8, 11, 13 and 15 for the U87MG.de2-7 cell lines respectively. Mean±SEM tumor volumes until termination of the experiments due to ethical considerations of tumor burden are presented in FIG. 91 for the A431 xenograft until day 25, and in FIG. 92 for U87MG.de2-7 xenografts until day 31.

[3] = system: xenograft U87MGΔEGFR; assay: immunohistochemical analysis on xenograft tumors; type: binding, human
[4] = molecular target: T1, denatured soluble domain of the EGFR (sEGFR) (Homo sapiens, UniProt P00533); assay: competition ELISA with biotinylated mAb806; type: binding; conditions: after unlabeled blocking antibody
T1 construct: sEGFR is the recombinant extracellular domain (amino acids 1-621) of the wild-type EGFR); host or cells: CHO cells
Method: Briefly, the denatured soluble domain of the EGFR (sEGFR) was coated on to ELISA plates. The unlabeled 124 or 1133 antibodies were then added across the plate in increasing concentrations.

[5] = system: xenograft A431; assay: immunohistochemical analysis on xenograft tumors; type: binding, human
Description: The murine fibroblast line NR6ΔEGFR was used as immunogen. Mouse hybridomas were generated by immunizing BALB/c mice five times subcutaneously at 2- to 3-week intervals, with 5×10^5-2×10^6 cells in adjuvant. Complete Freund's adjuvant was used for the first injection. Thereafter, incomplete Freund's adjuvant (Difco™, Voigt Global Distribution, Lawrence, Kans.) was used. Spleen cells from immunized mice were fused with mouse myeloma cell line SP2/0 (Shulman et al. (1978) Nature 276:269-270). Supernatants of newly generated clones were screened in hemadsorption assays for reactivity with cell line NR6, NR6wtEGFR, and NR6ΔEGFR and then analyzed by hemadsorption assays with human glioblastoma cell lines U87MG, U87MGwtEGFR, and U87ΔEGFR. Selected hybridoma supernatants were subsequently tested by western blotting and further analyzed by immunohistochemistry. Newly generated mAbs showing the expected reactivity pattern were purified.
Bound antibody was detected using the Dako Envision+ HRP detection system as per manufacturer's instructions. Sections were finally rinsed with water, counterstained with hematoxylin and mounted.

Molecule | ADCC cytotoxicity [1] [%] | xenograft growth versus PBS vehicle control [2] | Immunohistochemical staining [3] | Binding of biotin-labeled 806 [4] | Immunohistochemical staining [5]
hu806: humanized (veneered) 806 antibody, human IgG1; SEQ ID NO:42 and SEQ ID NO:47 (antibody, V domains shown) VH: MDWTWRILFLVAAATGVHSQVQLQESGPGLVKPSQTLSLTCTVSGYSISSDFAWNWIRQPPGKGLEWMGYISYSGNTRYQPSLKSRITISRDTSKNQFFLKLNSVTAADTATYYCVTAGRGFPYWGQGTLVTVSS VL: MDWTWRILFLVAAATGVHSDIQMTQSPSSMSVSVGDRVTITCHSSQDINSNIGWLQQKPGKSFKGLIYHGTNLDDGVPSRFSGSGSGTDYTLTISSLQPEDFATYYCVQYAQFPWTFGGGTKLEIKR | 30 | marked reduction in A431 xenograft growth | – | – | –
mAb1133: murine IgG2a monoclonal antibody, clone 1133; VH SEQ ID NO:32, VL SEQ ID NO:37 (antibody, listed as Mus musculus, V domains shown) VH: DVQLQGSGPSLVKPSQSLSLTCTVTGYSITSDYAWNWIRQFPGNKLEWMGYISYSGNTRYNPSLRSRISITRDTSKNQFFLQLNSVTTEDTATYYCATAGRGFPYWGQGTLVTVSA VL: DILMTQSPSSMSVSLGDTVNITCHSSQDINSNIGWLQQKPGKSFKGLIYHGTNLDDGVPSRFSGSGSGADYSLTISSLESEDFADYYCVQYGQFPWTFGGGTKLEIKR | – | – | pos. | None | pos. (predominantly basal

From patent US20110293511A1, “SPECIFIC BINDING PROTEINS AND USES THEREOF” (priority 2009, published 2011)
